This note sets out measurements from patent publication US20200048345A1 (INNATE PHARMA, published 2020).

For assay [1], the target named is T1, Human NKp46 recombinant protein (human, UniProt O76036 22-258, limits assumed).
T1 construct: Soluble analyte in SPR; also called recombinant human NKp46 proteins
The assay is described as follows: SPR (Biacore T100), captured on Protein-A chip, recombinant human NKp46 6.25-400 nM, 1:1 kinetic model. The method, then: SPR measurements were performed on a Biacore T100 apparatus (Biacore GE Healthcare) at 25° C. In all Biacore experiments HBS-EP+ (Biacore GE Healthcare) and NaOH 10 mM served as running buffer and regeneration buffer respectively. Sensorgrams were analyzed with Biacore T100 Evaluation software. Protein-A was purchased from (GE Healthcare). Human NKp46 recombinant proteins were cloned, produced and purified at Innate Pharma.
Protein-A proteins were immobilized covalently to carboxyl groups in the dextran layer on a Sensor Chip CMS. The chip surface was activated with EDC/NHS (N-ethyl-N′-(3-dimethylaminopropyl) carbodiimidehydrochloride and N-hydroxysuccinimide (Biacore GE Healthcare)). Protein-A was diluted to 10 μg/ml in coupling buffer (10 mM acetate, pH 5.6) and injected until the appropriate immobilization level was reached (i.e. 2000 RU). Deactivation of the remaining activated groups was performed using 100 mM ethanolamine pH 8 (Biacore GE Healthcare).
Monovalent affinity study was conducted following a regular Capture-Kinetic protocol recommended by the manufacturer (Biacore GE Healthcare kinetic wizard). Seven serial dilutions of human NKp46 recombinant proteins, ranging from 6.25 to 400 nM were sequentially injected over the captured Bi-Specific antibodies and allowed to dissociate for 10 min before regeneration. The entire sensorgram sets were fitted using the 1:1 kinetic binding model.

The target in the next assay is T2, human FcRn (human, UniProt P55899 24-297; P61769 21-119, limits assumed).
T2 construct: also called recombinant FcRn proteins
Description: SPR, recombinant human FcRn immobilized on chip; Steady State. On the technique in general: Surface plasmon resonance follows binding to a sensor surface in real time, without labels.

The Kd is the constant that tells how readily two partners part at equilibrium. As a reminder, the koff is the rate constant with which the complex falls apart. A word on the kon: it is a measure of how fast the partners come together.

T1 sequence (O76036 22-258 limits assumed): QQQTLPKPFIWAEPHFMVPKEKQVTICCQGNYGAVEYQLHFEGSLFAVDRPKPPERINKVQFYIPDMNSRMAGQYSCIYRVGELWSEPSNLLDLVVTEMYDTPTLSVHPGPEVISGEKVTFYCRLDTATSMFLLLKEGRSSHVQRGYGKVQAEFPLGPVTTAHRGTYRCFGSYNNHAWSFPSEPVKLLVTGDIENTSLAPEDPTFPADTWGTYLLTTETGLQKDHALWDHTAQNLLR
T2 sequence (P55899 24-297 limits assumed, chain 1 of 2): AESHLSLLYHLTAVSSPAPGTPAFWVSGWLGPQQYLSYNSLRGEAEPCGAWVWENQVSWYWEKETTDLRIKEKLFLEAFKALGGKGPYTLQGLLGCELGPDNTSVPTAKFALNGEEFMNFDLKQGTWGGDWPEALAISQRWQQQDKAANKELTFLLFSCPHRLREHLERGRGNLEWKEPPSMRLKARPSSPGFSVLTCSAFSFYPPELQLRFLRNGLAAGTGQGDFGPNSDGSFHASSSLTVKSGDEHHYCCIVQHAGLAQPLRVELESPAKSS
T2 sequence (P61769 21-119 limits assumed, chain 2 of 2): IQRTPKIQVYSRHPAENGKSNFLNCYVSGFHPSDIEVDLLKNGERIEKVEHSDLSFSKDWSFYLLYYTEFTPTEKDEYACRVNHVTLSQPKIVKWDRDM

B1: CD19-F9A-NKp46-3 (bispecific antibody, human IgG1, kappa)
chain 1: not shown
chain 2: DIVMTQSPATLSVTPGDRVSLSCRASQSISDYLHWYQQKSHESPRLLIKYASQSISGIPSRFSGSGSGSDFTLSINSVEPEDVGVYYCQNGHSFPLTFGAGTKLELKASTKGPSVFPLAPSSKSTSGGTAALGCLVKDYFPEPVTVSWNSGALTSGVHTFPAVLQSSGLYSLSSVVTVPSSSLGTQTYICNVNHKPSNTKVDKRVEPKSCDKTH
chain 3: not shown
notes: Heterotrimer, monomeric Fc with tandem CH3, N297S, wild-type hinge cysteines
Consider B1, for which, in assay [1], the Kd is 32 nM, the koff worked out at 0.00669 s⁻¹ and the kon amounted to 207000 M⁻¹ s⁻¹. Also, the Kd with human FcRn is 858 nM.
